# Experimental data: the supplement of paper PMC9112550, “Optimization of the antimicrobial peptide Bac7 by deep mutational scanning” (BMC Biology, 2022)
# System: Escherichia coli TOP10
# Assay: shrunken log2 fold change of peptide-encoding DNA abundance (4.5 h post-induction vs induction); higher = less antimicrobial activity (less host growth inhibition)
# Conditions: time post-induction: 4.5 h; library: site-saturation at positions 5, 18, 19, 20
# 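Note: peptides expressed intracellularly from a pBAD plasmid library in pooled LB shake-flask culture, induced with 0.3% L-arabinose, DNA abundance read by NGS, three biological replicates, DESeq2 with apeglm shrinkage.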
row,Sequence,shrunken log2 fold change
1,RRIRRRPPRLPRPRPRPIWAPRP,0.0342
2,RRIRRRPPRLPRPRPRPIWGPRP,0.163
3,RRIRRRPPRLPRPRPRPIYEPRP,0.0785
4,RRIRRRPPRLPRPRPRPKAGPRP,0.319
5,RRIRRRPPRLPRPRPRPKATPRP,0.165
6,RRIRRRPPRLPRPRPRPKCAPRP,0.884
7,RRIRRRPPRLPRPRPRPKCCPRP,0.00261
8,RRIRRRPPRLPRPRPRPKCIPRP,-0.019
9,RRIRRRPPRLPRPRPRPKCKPRP,-0.0255
10,RRIRRRPPRLPRPRPRPKCLPRP,0.144
11,RRIRRRPPRLPRPRPRPKEDPRP,0.196
12,RRIRRRPPRLPRPRPRPKEIPRP,0.205
13,RRIRRRPPRLPRPRPRPKEQPRP,0.118
14,RRIRRRPPRLPRPRPRPKERPRP,-0.327
15,RRIRRRPPRLPRPRPRPKFAPRP,0.283
16,RRIRRRPPRLPRPRPRPKFFPRP,-0.00723
17,RRIRRRPPRLPRPRPRPKHDPRP,1.2
18,RRIRRRPPRLPRPRPRPKKQPRP,-0.0969
19,RRIRRRPPRLPRPRPRPKLPPRP,0.369
20,RRIRRRPPRLPRPRPRPKPHPRP,0.536

row,Sequence,shrunken log2 fold change
1,RRIRRRPPRLPRPRPRPKPNPRP,0.531
2,RRIRRRPPRLPRPRPRPKQEPRP,0.0674
3,RRIRRRPPRLPRPRPRPKRCPRP,-0.131
4,RRIRRRPPRLPRPRPRPKREPRP,0.304
5,RRIRRRPPRLPRPRPRPKRGPRP,0.44
6,RRIRRRPPRLPRPRPRPKTKPRP,-0.146
7,RRIRRRPPRLPRPRPRPKTPPRP,0.782
8,RRIRRRPPRLPRPRPRPKVSPRP,0.267
9,RRIRRRPPRLPRPRPRPKWTPRP,-0.149
10,RRIRRRPPRLPRPRPRPKYNPRP,-0.384
11,RRIRRRPPRLPRPRPRPLARPRP,0.153
12,RRIRRRPPRLPRPRPRPLCKPRP,0.167
13,RRIRRRPPRLPRPRPRPLCRPRP,0.224
14,RRIRRRPPRLPRPRPRPLDWPRP,0.297
15,RRIRRRPPRLPRPRPRPLEHPRP,0.21
16,RRIRRRPPRLPRPRPRPLGWPRP,1.07
17,RRIRRRPPRLPRPRPRPLIFPRP,-0.00389
18,RRIRRRPPRLPRPRPRPLKEPRP,0.0888
19,RRIRRRPPRLPRPRPRPLKPPRP,0.314
20,RRIRRRPPRLPRPRPRPLMDPRP,0.235

row,Sequence,shrunken log2 fold change
1,RRIRRRPPRLPRPRPRPLMQPRP,0.396
2,RRIRRRPPRLPRPRPRPLNEPRP,0.162
3,RRIRRRPPRLPRPRPRPLQPPRP,0.873
4,RRIRRRPPRLPRPRPRPLRCPRP,0.714
5,RRIRRRPPRLPRPRPRPLTCPRP,-0.12
6,RRIRRRPPRLPRPRPRPLTGPRP,0.0456
7,RRIRRRPPRLPRPRPRPLTHPRP,0.275
8,RRIRRRPPRLPRPRPRPLVAPRP,0.755
9,RRIRRRPPRLPRPRPRPLVGPRP,0.239
10,RRIRRRPPRLPRPRPRPLWEPRP,0.378
11,RRIRRRPPRLPRPRPRPLYAPRP,0.0633
12,RRIRRRPPRLPRPRPRPLYGPRP,0.0447
13,RRIRRRPPRLPRPRPRPLYPPRP,-0.0452
14,RRIRRRPPRLPRPRPRPMAIPRP,0.202
15,RRIRRRPPRLPRPRPRPMANPRP,0.136
16,RRIRRRPPRLPRPRPRPMAVPRP,-0.165
17,RRIRRRPPRLPRPRPRPMAYPRP,-0.193
18,RRIRRRPPRLPRPRPRPMCQPRP,0.254
19,RRIRRRPPRLPRPRPRPMELPRP,0.212
20,RRIRRRPPRLPRPRPRPMFCPRP,0.235
